According to patent publication US20260028401A1 (SHENGHE CHINA BIOPHARMACEUTICAL, published 2026):

What was measured:
[1] = target: T1, ILT4 on CHO-ILT4 cells (Manufacturer: Kang Yuan Bochuang, Cat: KC-1473) (UniProt Q8N423 22-597, limits assumed); assay: flow cytometry on CHO-ILT4 cells, 7-point 5-fold titration, anti-VHH PE detection
T1 construct: whole, on cells; also called ILT4 cell line

[2] = target: T2, Human LILRB2/CD85d/ILT4 Protein, His Tag (Manufacturer: KACTUS, Cat: LIL-HM4B2) (human, UniProt Q8N423 22-460, limits assumed); assay: BLI (ForteBio, AHC biosensors), ILT4 His protein loaded as written, antibody at 100 nM, 180 s association, 200 s dissociation; non-humanized antibody of the invention
T2 construct: Bought recombinant protein; not shown: His tag
Protocol: AHC Biosensors (Manufacturer: ForteBio. Inc., Cat: 18-5060) were pre-wetted for 20 min using PBST buffer and added to Human LILRB2/CD85d/ILT4 Protein, His Tag (Manufacturer: KATUS, Cat: LIL-HM4B2) protein diluted to 20 μg/mL using PBST to a target protein loading thickness of 1 nm. The antibody of the present invention and the antibody (humanized antibody) of the present invention (VHH and Fc sequences were SEQ ID NO: 6 and SEQ ID NO: 7, respectively) was diluted to 100 nM using PBST and added to the above sensor, and bound for 180 s and dissociated for 200 s.

T2 sequence (Q8N423 22-460 limits assumed): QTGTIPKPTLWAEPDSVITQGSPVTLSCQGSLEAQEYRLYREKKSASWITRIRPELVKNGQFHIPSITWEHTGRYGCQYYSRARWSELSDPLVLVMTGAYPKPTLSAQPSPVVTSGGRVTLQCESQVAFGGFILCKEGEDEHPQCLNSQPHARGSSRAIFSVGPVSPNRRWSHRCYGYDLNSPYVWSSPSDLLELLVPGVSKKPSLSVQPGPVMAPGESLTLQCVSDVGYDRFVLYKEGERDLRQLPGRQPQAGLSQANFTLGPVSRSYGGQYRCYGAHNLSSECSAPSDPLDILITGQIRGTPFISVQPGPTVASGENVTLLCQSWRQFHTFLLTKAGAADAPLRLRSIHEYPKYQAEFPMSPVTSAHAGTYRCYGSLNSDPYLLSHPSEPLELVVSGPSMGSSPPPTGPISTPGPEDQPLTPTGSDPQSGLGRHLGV
T1 sequence (Q8N423 22-597 limits assumed): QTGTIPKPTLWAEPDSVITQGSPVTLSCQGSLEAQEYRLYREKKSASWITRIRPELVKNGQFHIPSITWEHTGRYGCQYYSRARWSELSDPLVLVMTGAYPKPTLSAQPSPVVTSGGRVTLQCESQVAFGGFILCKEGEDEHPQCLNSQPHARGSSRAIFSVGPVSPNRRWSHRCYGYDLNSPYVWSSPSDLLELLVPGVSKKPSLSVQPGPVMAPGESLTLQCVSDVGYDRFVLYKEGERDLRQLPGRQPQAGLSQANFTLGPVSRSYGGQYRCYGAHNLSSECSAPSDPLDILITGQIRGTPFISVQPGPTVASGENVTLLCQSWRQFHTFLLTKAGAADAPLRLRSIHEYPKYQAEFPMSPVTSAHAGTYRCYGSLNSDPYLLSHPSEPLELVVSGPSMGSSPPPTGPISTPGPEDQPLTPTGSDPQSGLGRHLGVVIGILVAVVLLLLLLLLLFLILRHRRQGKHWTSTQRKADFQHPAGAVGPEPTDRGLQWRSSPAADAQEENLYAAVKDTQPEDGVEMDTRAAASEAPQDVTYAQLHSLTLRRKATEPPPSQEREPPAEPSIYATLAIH

B1: the antibody of the present invention (anti-ILT4 single-domain antibody, alpaca VHH, SEQ ID NO: 4) (VHH)
VHH: EVQLVESGGGLGQAGGSLRLSCVVSGRTFSRYAMGWFRQAPGKEREFVAAISWSPGDITTYADSVRGRFTISRDNAKNTVYLQMNSLKPEDTAVYYCAADPTAWGTQYDYWGQGTQVTVSS
notes: VHH screened from an alpaca immune library
- EC50 [1]: 0.36 µg/mL
- Kd [2]: 0.107 nM
